Measurements from patent US20050266469.

Target: T1, peptide derived from the known CHK1 kinase substrate CDC25C (GLYRSPSMPENLNR)
T1 chain: GLYRSPSMPENLNR

B1: CHK1sv1-His-tagged protein (protein)
chain: MAVPFVEDWDLVQTLGEGAYGEVQLAVNRVTEEAVAVKIVDMKRAVDCPENIKKEICINKMLNHENVVKFYGHRREGNIQYLFLEYCSGGELFDRIEPDIGMPEPDAQRFFHQLMAGVVYLHGIGITHRDIKPENLLLDERDNLKISDFGLATVFRYNNRERLLNKMCGTLPYVAPELLKRREFHAEPVDVWSCGIVLTAMLAGELPWDQPSDSCQEYSDWKEKKTYLNPWKKIDSAPLALLHKILVENPSARITIPDIKKDRWYNKPLKKGAKRPRVTSGGVSESPSGFSKHIQSNLDFSPVNSASRTPGSGWSKEHHHHHH
Km (CDC25C substrate): 120 µM | Vmax: 36 nmol/min/µg
